Measurements taken from the supplement of paper PMC10065799, “High-throughput profiling of sequence recognition by tyrosine kinases and SH2 domains using bacterial peptide display” (eLife, 2023).
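Further: 11-residue human phosphosite peptides and single-mutation variants displayed on the E. coli surface, counted by deep sequencing, each peptide's frequency after selection divided by its frequency in the unselected input library; frequency after pTyr selection over input frequency; kinase dosed for 20-30% of maximal phosphorylation in three min.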

Each sequence was assayed on Fer (mouse) (assay: phosphorylation enrichment, bacterial display (enrichment ratio); higher = better substrate or ligand; peptides without Tyr show the background).
In the case of WKKKIYEESST [MOCS2_Y170_E168K], the phosphorylation enrichment is reported as 0.449. INASGYRVGPA [ACSM1_Y477_I479V] showed a phosphorylation enrichment of 0.563. ALTRSYVREKV [CYP2C8_Y243_I244V] gave a phosphorylation enrichment of 0.398. GEVLVYVEDPA [FLNA_Y319] was tested, and the phosphorylation enrichment was 0.85. LSAPWYLNRIS [HEXA_Y421] showed a phosphorylation enrichment of 0.359. With QELRRYLKSGV [MICA_Y194] the phosphorylation enrichment was 0.626. DTFDPYLDVAL [USP36_Y268_YF] showed a phosphorylation enrichment of 1.52. In the case of AAYNRYDQERF [CDC73_Y293], the phosphorylation enrichment is reported as 0.433. With KHTLSYVDVGT [SDHA_Y629] the phosphorylation enrichment was 0.392. For TDTAAYEERLR [SPTB_Y474_V478L], the phosphorylation enrichment was 0.458. Sequence SMGHRYIEVFK [HNRNPF_Y82] has a phosphorylation enrichment of 0.438. With ASQEEYSAMRD [KRAS_Y64_G60S] the phosphorylation enrichment was 0.435. NSNAAYEESHF [LRIF1_Y714_Q716E] showed a phosphorylation enrichment of 0.504. Sequence EEQFFYEKAIL [BCCIP_Y257_E254Q] has a phosphorylation enrichment of 3.96. With EQMLEYMGQLQ [CFAP45_Y289_E291G] the phosphorylation enrichment was 0.427. PFRQWYESHFA [RPS8_Y113_YF] was tested, and the phosphorylation enrichment was 3.73. In the case of AGQEGYDRLRP [RAC1_Y64_D63G], the phosphorylation enrichment is reported as 0.347. For VTAALYGRLFE [BTD_Y536_YF], the phosphorylation enrichment was 0.436. GGQVFHNSEYG [FLT4_Y1333_Y1333H] gave a phosphorylation enrichment of 0.349. SMEMKYLEEKN [ZAP70_Y451_G448E] was tested, and the phosphorylation enrichment was 0.572. Work on ITNLLYHVVSW [GBA_Y412_G416S] yielded a phosphorylation enrichment of 5.89. In the case of SGFESYGSSSS [RPA2_Y9_Y14S], the phosphorylation enrichment is reported as 0.521. LGSWTYTKTVS [ROS1_Y144] showed a phosphorylation enrichment of 0.8. CTSIHYNFMCN [TP53_Y234_T231S_YF] was tested, and the phosphorylation enrichment was 0.519. Sequence LEEFQYIGESQ [MSH2_Y856] has a phosphorylation enrichment of 0.918. MTRDIYETDYY [INSR_Y1185] was tested, and the phosphorylation enrichment was 0.831. MANYVYKAGPS [MAML2_Y515_M514V] gave a phosphorylation enrichment of 0.343. With FLQTDYTSQVS [FRMPD1_Y846] the phosphorylation enrichment was 0.451. HPWPQYTTRAP [FNDC1_Y1281] was tested, and the phosphorylation enrichment was 0.454. With MCDSHYLESRF [CLK1_Y56_S61F] the phosphorylation enrichment was 0.44. With FGGLRCGFGVL [KRTAP20-2_Y13_Y13C_YF] the phosphorylation enrichment was 0.46. Work on NVADHYGVFKP [ATP6V0D2_Y271_YF] yielded a phosphorylation enrichment of 0.455. DAVCFYRMENA [NPHS2_Y195_I192V_YF] gave a phosphorylation enrichment of 0.614.

These sequences were tested on c-Src in the same assay as above.
Sequence WKKKIYEESST [MOCS2_Y170_E168K] has a phosphorylation enrichment of 0.448. Work on INASGYRVGPA [ACSM1_Y477_I479V] yielded a phosphorylation enrichment of 0.51. For ALTRSYVREKV [CYP2C8_Y243_I244V], the phosphorylation enrichment was 0.316. For GEVLVYVEDPA [FLNA_Y319], the phosphorylation enrichment was 0.636. Work on LSAPWYLNRIS [HEXA_Y421] yielded a phosphorylation enrichment of 0.362. Sequence QELRRYLKSGV [MICA_Y194] has a phosphorylation enrichment of 0.577. With DTFDPYLDVAL [USP36_Y268_YF] the phosphorylation enrichment was 0.712. Sequence AAYNRYDQERF [CDC73_Y293] has a phosphorylation enrichment of 0.468. KHTLSYVDVGT [SDHA_Y629] gave a phosphorylation enrichment of 0.283. For TDTAAYEERLR [SPTB_Y474_V478L], the phosphorylation enrichment was 0.478. SMGHRYIEVFK [HNRNPF_Y82] showed a phosphorylation enrichment of 0.445. Work on ASQEEYSAMRD [KRAS_Y64_G60S] yielded a phosphorylation enrichment of 0.508. NSNAAYEESHF [LRIF1_Y714_Q716E] was tested, and the phosphorylation enrichment was 0.475. Sequence EEQFFYEKAIL [BCCIP_Y257_E254Q] has a phosphorylation enrichment of 0.608. EQMLEYMGQLQ [CFAP45_Y289_E291G] showed a phosphorylation enrichment of 0.505. PFRQWYESHFA [RPS8_Y113_YF] showed a phosphorylation enrichment of 0.972. For AGQEGYDRLRP [RAC1_Y64_D63G], the phosphorylation enrichment was 0.378. Sequence VTAALYGRLFE [BTD_Y536_YF] has a phosphorylation enrichment of 4.97. GGQVFHNSEYG [FLT4_Y1333_Y1333H] gave a phosphorylation enrichment of 0.425. SMEMKYLEEKN [ZAP70_Y451_G448E] was tested, and the phosphorylation enrichment was 0.609. In the case of ITNLLYHVVSW [GBA_Y412_G416S], the phosphorylation enrichment is reported as 3.8. SGFESYGSSSS [RPA2_Y9_Y14S] was tested, and the phosphorylation enrichment was 0.541. With LGSWTYTKTVS [ROS1_Y144] the phosphorylation enrichment was 0.774. Work on CTSIHYNFMCN [TP53_Y234_T231S_YF] yielded a phosphorylation enrichment of 0.447. LEEFQYIGESQ [MSH2_Y856] gave a phosphorylation enrichment of 0.882. MTRDIYETDYY [INSR_Y1185] gave a phosphorylation enrichment of 2.42. MANYVYKAGPS [MAML2_Y515_M514V] gave a phosphorylation enrichment of 0.457. Work on FLQTDYTSQVS [FRMPD1_Y846] yielded a phosphorylation enrichment of 0.428. HPWPQYTTRAP [FNDC1_Y1281] showed a phosphorylation enrichment of 0.561. Sequence MCDSHYLESRF [CLK1_Y56_S61F] has a phosphorylation enrichment of 0.443. Work on FGGLRCGFGVL [KRTAP20-2_Y13_Y13C_YF] yielded a phosphorylation enrichment of 0.37. Sequence NVADHYGVFKP [ATP6V0D2_Y271_YF] has a phosphorylation enrichment of 4.14. DAVCFYRMENA [NPHS2_Y195_I192V_YF] was tested, and the phosphorylation enrichment was 3.07.

The sequences below were run against Hck (UniProt P08631) in the same assay as above.
Sequence of Hck (P08631 whole entry, looked up): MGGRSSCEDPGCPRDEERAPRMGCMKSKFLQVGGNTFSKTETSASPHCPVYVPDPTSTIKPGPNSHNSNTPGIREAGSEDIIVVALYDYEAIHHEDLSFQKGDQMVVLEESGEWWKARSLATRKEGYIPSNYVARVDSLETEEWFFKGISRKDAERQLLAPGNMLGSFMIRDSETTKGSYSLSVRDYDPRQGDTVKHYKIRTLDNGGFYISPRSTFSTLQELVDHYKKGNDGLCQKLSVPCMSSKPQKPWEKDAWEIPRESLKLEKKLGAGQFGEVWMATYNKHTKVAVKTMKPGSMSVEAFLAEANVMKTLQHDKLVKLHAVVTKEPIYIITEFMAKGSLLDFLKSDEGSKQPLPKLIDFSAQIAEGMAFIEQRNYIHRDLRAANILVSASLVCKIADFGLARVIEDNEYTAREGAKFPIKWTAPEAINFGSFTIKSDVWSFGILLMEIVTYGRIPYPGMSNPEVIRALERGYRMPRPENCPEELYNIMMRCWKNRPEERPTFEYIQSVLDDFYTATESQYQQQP
Sequence WKKKIYEESST [MOCS2_Y170_E168K] has a phosphorylation enrichment of 0.511. For INASGYRVGPA [ACSM1_Y477_I479V], the phosphorylation enrichment was 0.643. ALTRSYVREKV [CYP2C8_Y243_I244V] showed a phosphorylation enrichment of 0.437. GEVLVYVEDPA [FLNA_Y319] showed a phosphorylation enrichment of 0.589. In the case of LSAPWYLNRIS [HEXA_Y421], the phosphorylation enrichment is reported as 0.46. With QELRRYLKSGV [MICA_Y194] the phosphorylation enrichment was 0.957. With DTFDPYLDVAL [USP36_Y268_YF] the phosphorylation enrichment was 0.701. For AAYNRYDQERF [CDC73_Y293], the phosphorylation enrichment was 0.447. With KHTLSYVDVGT [SDHA_Y629] the phosphorylation enrichment was 0.431. For TDTAAYEERLR [SPTB_Y474_V478L], the phosphorylation enrichment was 0.516. SMGHRYIEVFK [HNRNPF_Y82] gave a phosphorylation enrichment of 0.407. With ASQEEYSAMRD [KRAS_Y64_G60S] the phosphorylation enrichment was 0.531. Sequence NSNAAYEESHF [LRIF1_Y714_Q716E] has a phosphorylation enrichment of 0.496. Work on EEQFFYEKAIL [BCCIP_Y257_E254Q] yielded a phosphorylation enrichment of 0.654. EQMLEYMGQLQ [CFAP45_Y289_E291G] showed a phosphorylation enrichment of 0.507. Work on PFRQWYESHFA [RPS8_Y113_YF] yielded a phosphorylation enrichment of 0.68. AGQEGYDRLRP [RAC1_Y64_D63G] showed a phosphorylation enrichment of 0.527. VTAALYGRLFE [BTD_Y536_YF] gave a phosphorylation enrichment of 5.74. Sequence GGQVFHNSEYG [FLT4_Y1333_Y1333H] has a phosphorylation enrichment of 0.377. SMEMKYLEEKN [ZAP70_Y451_G448E] was tested, and the phosphorylation enrichment was 0.548. In the case of ITNLLYHVVSW [GBA_Y412_G416S], the phosphorylation enrichment is reported as 4.84. SGFESYGSSSS [RPA2_Y9_Y14S] gave a phosphorylation enrichment of 0.484. LGSWTYTKTVS [ROS1_Y144] showed a phosphorylation enrichment of 1.05. CTSIHYNFMCN [TP53_Y234_T231S_YF] was tested, and the phosphorylation enrichment was 0.473. Work on LEEFQYIGESQ [MSH2_Y856] yielded a phosphorylation enrichment of 0.558. With MTRDIYETDYY [INSR_Y1185] the phosphorylation enrichment was 1.39. Sequence MANYVYKAGPS [MAML2_Y515_M514V] has a phosphorylation enrichment of 0.419. In the case of FLQTDYTSQVS [FRMPD1_Y846], the phosphorylation enrichment is reported as 0.417. In the case of HPWPQYTTRAP [FNDC1_Y1281], the phosphorylation enrichment is reported as 0.572. For MCDSHYLESRF [CLK1_Y56_S61F], the phosphorylation enrichment was 0.522. Sequence FGGLRCGFGVL [KRTAP20-2_Y13_Y13C_YF] has a phosphorylation enrichment of 0.403. Work on NVADHYGVFKP [ATP6V0D2_Y271_YF] yielded a phosphorylation enrichment of 3.18. With DAVCFYRMENA [NPHS2_Y195_I192V_YF] the phosphorylation enrichment was 0.788.

Each sequence was assayed on AncSZ in the same assay as above.
For WKKKIYEESST [MOCS2_Y170_E168K], the phosphorylation enrichment was 0.818. INASGYRVGPA [ACSM1_Y477_I479V] was tested, and the phosphorylation enrichment was 0.652. For ALTRSYVREKV [CYP2C8_Y243_I244V], the phosphorylation enrichment was 0.571. For GEVLVYVEDPA [FLNA_Y319], the phosphorylation enrichment was 1.33. LSAPWYLNRIS [HEXA_Y421] was tested, and the phosphorylation enrichment was 0.791. Sequence QELRRYLKSGV [MICA_Y194] has a phosphorylation enrichment of 0.652. For DTFDPYLDVAL [USP36_Y268_YF], the phosphorylation enrichment was 1.18. AAYNRYDQERF [CDC73_Y293] was tested, and the phosphorylation enrichment was 0.681. With KHTLSYVDVGT [SDHA_Y629] the phosphorylation enrichment was 0.703. With TDTAAYEERLR [SPTB_Y474_V478L] the phosphorylation enrichment was 0.936. Work on SMGHRYIEVFK [HNRNPF_Y82] yielded a phosphorylation enrichment of 0.744. ASQEEYSAMRD [KRAS_Y64_G60S] was tested, and the phosphorylation enrichment was 1.08. NSNAAYEESHF [LRIF1_Y714_Q716E] was tested, and the phosphorylation enrichment was 0.849. Sequence EEQFFYEKAIL [BCCIP_Y257_E254Q] has a phosphorylation enrichment of 1.11. With EQMLEYMGQLQ [CFAP45_Y289_E291G] the phosphorylation enrichment was 0.913. Work on PFRQWYESHFA [RPS8_Y113_YF] yielded a phosphorylation enrichment of 1.08. AGQEGYDRLRP [RAC1_Y64_D63G] showed a phosphorylation enrichment of 0.547. With VTAALYGRLFE [BTD_Y536_YF] the phosphorylation enrichment was 0.748. GGQVFHNSEYG [FLT4_Y1333_Y1333H] showed a phosphorylation enrichment of 0.581. SMEMKYLEEKN [ZAP70_Y451_G448E] showed a phosphorylation enrichment of 1.15. ITNLLYHVVSW [GBA_Y412_G416S] was tested, and the phosphorylation enrichment was 1.46. For SGFESYGSSSS [RPA2_Y9_Y14S], the phosphorylation enrichment was 0.651. With LGSWTYTKTVS [ROS1_Y144] the phosphorylation enrichment was 1.94. CTSIHYNFMCN [TP53_Y234_T231S_YF] was tested, and the phosphorylation enrichment was 0.848. LEEFQYIGESQ [MSH2_Y856] showed a phosphorylation enrichment of 2.09. Work on MTRDIYETDYY [INSR_Y1185] yielded a phosphorylation enrichment of 2.66. Sequence MANYVYKAGPS [MAML2_Y515_M514V] has a phosphorylation enrichment of 0.448. FLQTDYTSQVS [FRMPD1_Y846] gave a phosphorylation enrichment of 1.03. In the case of HPWPQYTTRAP [FNDC1_Y1281], the phosphorylation enrichment is reported as 0.628. In the case of MCDSHYLESRF [CLK1_Y56_S61F], the phosphorylation enrichment is reported as 0.78. FGGLRCGFGVL [KRTAP20-2_Y13_Y13C_YF] gave a phosphorylation enrichment of 0.91. In the case of NVADHYGVFKP [ATP6V0D2_Y271_YF], the phosphorylation enrichment is reported as 0.557. DAVCFYRMENA [NPHS2_Y195_I192V_YF] gave a phosphorylation enrichment of 1.21.
